This passage reports stoichiometry N results from article PMC7102982.

As usually defined, the stoichiometry N is a count of units in the complex or per binding partner.

This assay concerns the target Xenopus laevis FANCA, full length (Xenopus laevis). Kind of assay: cryo-EM structure; single-particle cryo-EM of the purified FANCA-FANCG complex (0.8 mg/ml, 0.003% DDM); four classes: FANCA CTD dimer at 3.35 and 3.46 A, two FANCA-FANCG complexes at 4.59 and 4.84 A.

As for “Xenopus laevis FANCA, full length (natural protein)”, the stoichiometry N came to 2.
